Test results from patent US8598081B2, “Specific delivery of agrochemicals” (priority 2010, dated 2013).

T1: potato lectin (Solanum tuberosum, UniProt Q9S8M0)
T1 construct: purchased Sigma
T1 sequence (Q9S8M0 whole entry, looked up): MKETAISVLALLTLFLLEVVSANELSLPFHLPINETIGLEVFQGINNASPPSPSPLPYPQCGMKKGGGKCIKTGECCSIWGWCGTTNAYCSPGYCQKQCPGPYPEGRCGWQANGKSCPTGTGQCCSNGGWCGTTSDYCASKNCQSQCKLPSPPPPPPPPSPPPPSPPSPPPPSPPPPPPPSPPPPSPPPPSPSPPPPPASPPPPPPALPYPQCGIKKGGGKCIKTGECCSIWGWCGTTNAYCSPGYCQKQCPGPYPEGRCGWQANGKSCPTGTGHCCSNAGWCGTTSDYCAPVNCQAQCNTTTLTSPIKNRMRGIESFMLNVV

B1: VHH 3E6: VHH binding gum arabic, potato lectin and leaf surface; SEQ ID NO:7 by order of the list (protein, listed as Lama glama)
VHH: QVQLQESGGGLVQPGGTLSLSCAASGFNVRWYGMGWFRQAPGKEREGVACISALQETTAYADSVKGRFTLSRDNPKNTLSLQMNNLQPEDTGVYYCATTDCDDSSRMTYTSYLGQGTQVTVSS
modifications: 3E6
B2: Microcapsules containing uvitex OB VHH 3E6: polyurea microcapsules containing the fluorescent tracer Uvitex OB, coupled with (monovalent) VHH 3E6 (conjugate)
VHH: QVQLQESGGGLVQPGGTLSLSCAASGFNVRWYGMGWFRQAPGKEREGVACISALQETTAYADSVKGRFTLSRDNPKNTLSLQMNNLQPEDTGVYYCATTDCDDSSRMTYTSYLGQGTQVTVSS
modifications: left off: small tags and cut ends
notes: polyurea microcapsules containing the fluorescent tracer Uvitex OB, coupled with (monovalent) VHH 3E6

How the values were obtained:
potato lectin = molecular target: T1, potato lectin; assay: ELISA-like assay of VHH-coupled microcapsules, potato lectin-coated wells; type: binding; set-up: Area of bound microcapsules: unit not given beside the values; conditions: for Area of bound microcapsules: uvitex OB microcapsules
Method: Polyurea microcapsules were produced by interfacial polymerization. With the objective to generate functionalized polyurea microcapsules, VHH were coupled to microcapsules containing either the insecticide lambda cyhalothrin or the fluorescent tracer molecule Uvitex OB and a shell with incorporated lysine to surface-expose carboxylic acid residues. Lambda cyhalothrin was dissolved in benzyl benzoate in concentrations between 30% and 66% before encapsulation. Alternatively, a core of 1.5% Uvitex in benzyl benzoate was used for easy fluorescent visualization of microcapsules. Toluene diisocyanate (TDI) and polymethylenepolyphenylene isocyanate (PMPPI) were dissolved in the oil phase in different ratios and concentrations in the oil phase to produce desired shell characteristics. Stirring speed for the emulsion was varied to control droplet size and consequently microcapsule diameter. Microcapsules with approximate diameters of 5 μm, 10 μm, or 50 μm were successfully produced. Bifunctional lysine and trifunctional diethylene triamine (DETA) were used in different ratios and/or added sequentially during encapsulation to on the one hand maximize amounts of carboxylic acids on the microcapsules' surface and on the other hand obtain sufficient strength of capsule shells. Microcapsules were washed with water after production and stored as microcapsule suspensions in water. The microcapsules were washed with 100 mM MES, 500 mM NaCl, pH 6.0 immediately before coupling of VHH using a vacuum-tight filter flask and P 1.6 filter funnel (Duran). Alternatively, glass filter holders with 0.45 μm disposable membrane filters (Millipore) or 0.45 μm 96-well deep-well filtration plates (Millipore) were used. Couplings of VHH to microcapsules were performed using carbodiimide-mediated couplings using a one-step procedure, a two-step procedure without N-hydroxysuccinimide (NHS), or a two-step procedure with NHS. The major difference between one-step coupling and two-step coupling procedures is the occurrence of cross-linking of VHH in one-step coupling procedures. The protocols for the three procedures are largely similar and differ as follows. For one-step couplings VHH were added to washed microcapsules and 1-Ethyl-3-[3-dimethylaminopropyl]carbodiimide Hydrochloride (EDC) (Pierce) was added and coupling reaction was allowed for 2 hours at room temperature. For two-step couplings washed microcapsules were first activated with EDC in the presence or absence of NHS. Excess unreacted EDC (and NHS) were removed by quick sequential washes with ice-cold buffers and VHH were added and allowed to react with activated carboxylic acids on microcapsule shells. For ø 10 μm microcapsules 2-20 μg VHH were coupled per mg microcapsules. For microcapsules with other diameters amounts were scaled accordingly. After coupling of VHH the microcapsules were washed with PBS and stored in PBS. Success of coupling of VHH was investigated using a combination of analyzing coupling efficiency by SDS-PAGE and analyzing bound hexahistidine-tagged VHH by microscopy or a SP5 confocal microscope system (Leica) using anti-histidine antibodies directly conjugated with Alexa-488 fluorescent dye. […] VHH-coupled microcapsules were labeled with anti-histidine antibodies for 1 hour at room temperature. Unbound anti-histidine antibodies were removed by washing five times with PBS using 0.45 μm 96-well deep-well filtration plates (Millipore). […]

potato leaf discs = assay: Leaf disc binding assay with VHH-coupled microcapsules, potato; set-up: species or system potato (variety Desiree)
Method: (§1) A leaf disc binding assay was used to evaluate the interaction of VHH-coupled microcapsules with potato, grass and azalea leaves. ø 8 mm leaf discs were sampled from the leaves of potato pot plants (variety Desiree), from the leaves of greenhouse-grown Lollium perenne and from the leaves of azalea pot plants. Leaf discs were washed three times with PBS. Microcapsules containing lambda cyhalothrin or Uvitex were diluted to appropriate densities in 1% skimmed milk in PBS with 0.05%-TWEEN®-20. Microcapsules were added to the leaf discs and settling of microcapsules and binding of targeting agents allowed for 1 hour. Unbound microcapsules were removed by washing three to five times with PBS with 0.05%-TWEEN®-20.
For lambda cyhalothrin microcapsules, a residue analysis was performed to measure lambda cyhalothrin amounts on potato leaf discs. Washed leaf discs with bound microcapsules were transferred to glass vials and microcapsules were dissolved in acetone. Samples were diluted by addition of hexane containing 0.05% triphenylphosphate as internal standard. The amount of lambda cyhalothrin was determined by GC/MS-MS analysis in comparison with calibration solutions. Controls for lambda cyhalothrin microcapsules included blank microcapsules to which no VHH were coupled and microcapsules to which unrelated VHH were coupled.
(§2) Leaf discs with Uvitex microcapsules were analyzed for bound microcapsules on a macrozoom microscope system (Nikon). Microcapsules were counted using Volocity image analysis software (Perkin Elmer). A DAPI filter was used to visualize Uvitex microcapsules. Controls for Uvitex microcapsules included blank microcapsules to which no VHH were coupled and microcapsules to which unrelated VHH were coupled.

grass leaf discs = assay: Leaf disc binding assay with VHH-coupled microcapsules, grass; set-up: species or system Lollium perenne; conditions: Uvitex microcapsules
Method: as §1, §2

[1] = potato leaf discs, Uvitex microcapsules, FIG. 4

Row | Molecule | binding and retaining microcapsules to antigen-coated surface when VHH is coupled to a microcapsule (potato lectin; microcapsule binding assays, resists washing shear forces) | binding and retaining microcapsules to leaf surfaces (potato leaf discs; VHH coupled to Uvitex microcapsules, leaf disc binding assay) | Area of bound microcapsules (potato lectin; no coating (first series, with potato lectin rows), surface coverage 100%) | Area of bound microcapsules (potato lectin; potato lectin, surface coverage 4%) | Area of bound microcapsules (potato lectin; potato lectin, surface coverage 20%) | Area of bound microcapsules (potato lectin; potato lectin, surface coverage 100%) | more microcapsules bound to leaf surfaces compared to blank microcapsules (grass leaf discs) | more microcapsules bound to leaf surfaces compared to microcapsules coupled with unrelated VHH (grass leaf discs) | more microcapsules bound to leaf surfaces compared to blank microcapsules (potato leaf discs; [1]) | more microcapsules bound to leaf surfaces compared to microcapsules coupled with unrelated VHH (potato leaf discs; [1])
1 | B1 | capable of binding specifically to antigen-coated surfaces | capable of binding and retaining microcapsules specifically to leaf surfaces |  |  |  |  |  |  |  | 
2 | B2 |  |  | 86.574 | 144.955 | 510.242 | 504.839 | three-fold | two-fold | nine-fold | six-fold
